Data from patent US20240018502A1.

Target: plasma purified human complement protein C3 (human) (UniProt P01024)
Assay: cell-based or functional assay

plasma purified human complement protein C3 (human), sequence (P01024 23-667, chain 1 of 2): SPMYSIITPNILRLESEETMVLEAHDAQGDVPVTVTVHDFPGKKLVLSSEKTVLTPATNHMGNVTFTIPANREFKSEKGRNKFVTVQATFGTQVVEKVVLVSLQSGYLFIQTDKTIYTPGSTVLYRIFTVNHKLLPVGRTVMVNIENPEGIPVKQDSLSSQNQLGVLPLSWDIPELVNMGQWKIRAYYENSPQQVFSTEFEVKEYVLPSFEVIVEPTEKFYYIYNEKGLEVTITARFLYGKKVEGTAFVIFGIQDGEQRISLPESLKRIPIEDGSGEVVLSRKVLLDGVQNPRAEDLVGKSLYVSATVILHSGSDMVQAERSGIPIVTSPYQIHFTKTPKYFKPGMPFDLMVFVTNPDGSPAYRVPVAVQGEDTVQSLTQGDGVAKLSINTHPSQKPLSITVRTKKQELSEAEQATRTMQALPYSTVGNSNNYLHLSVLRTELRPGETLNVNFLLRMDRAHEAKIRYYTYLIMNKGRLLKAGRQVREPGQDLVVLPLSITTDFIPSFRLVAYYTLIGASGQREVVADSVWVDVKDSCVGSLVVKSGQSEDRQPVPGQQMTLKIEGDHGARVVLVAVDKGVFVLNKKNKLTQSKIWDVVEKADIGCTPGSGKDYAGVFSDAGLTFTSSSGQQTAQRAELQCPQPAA
plasma purified human complement protein C3 (human), sequence (P01024 672-1663, chain 2 of 2): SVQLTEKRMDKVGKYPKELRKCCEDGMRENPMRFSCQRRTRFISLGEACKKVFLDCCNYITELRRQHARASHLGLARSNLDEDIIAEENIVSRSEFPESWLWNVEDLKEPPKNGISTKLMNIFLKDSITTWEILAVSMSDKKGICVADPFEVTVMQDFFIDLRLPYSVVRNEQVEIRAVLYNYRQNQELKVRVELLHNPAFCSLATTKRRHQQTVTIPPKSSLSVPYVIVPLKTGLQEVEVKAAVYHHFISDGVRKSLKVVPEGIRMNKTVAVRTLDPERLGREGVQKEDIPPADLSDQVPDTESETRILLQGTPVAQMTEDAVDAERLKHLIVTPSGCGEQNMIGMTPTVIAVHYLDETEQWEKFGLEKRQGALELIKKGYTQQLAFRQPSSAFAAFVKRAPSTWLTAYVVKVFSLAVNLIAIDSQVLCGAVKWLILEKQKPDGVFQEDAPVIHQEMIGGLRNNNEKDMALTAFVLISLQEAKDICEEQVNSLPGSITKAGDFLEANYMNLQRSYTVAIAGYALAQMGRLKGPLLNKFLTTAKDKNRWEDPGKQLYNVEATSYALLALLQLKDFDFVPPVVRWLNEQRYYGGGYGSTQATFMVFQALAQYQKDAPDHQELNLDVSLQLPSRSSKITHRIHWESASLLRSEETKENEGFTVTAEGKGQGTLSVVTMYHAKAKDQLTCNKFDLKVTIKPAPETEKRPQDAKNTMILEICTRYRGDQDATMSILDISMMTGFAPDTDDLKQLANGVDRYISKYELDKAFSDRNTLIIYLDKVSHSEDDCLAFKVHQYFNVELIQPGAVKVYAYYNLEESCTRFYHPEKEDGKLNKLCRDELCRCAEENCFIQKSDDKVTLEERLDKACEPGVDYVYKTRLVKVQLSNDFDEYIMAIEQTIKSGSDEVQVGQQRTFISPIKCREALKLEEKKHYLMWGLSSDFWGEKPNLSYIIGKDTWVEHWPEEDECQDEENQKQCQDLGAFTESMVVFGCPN

Binder | EC50 of hC3 cleavage [nM]
MTSP-1 H40R/I41H/F97D/F99L/C122S/Q192G/D217I/K224S (enzyme) VVGGTDADEGEWPWQVSLHALGQGRHCGASLISPNWLVSAAHCYIDDRGFRYSDPTQWTAFLGLHDQSQRSAPGVQERRLKRIISHPFFNDDTLDYDIALLELEKPAEYSSMVRPISLPDASHVFPAGKAIWVTGWGHTQYGGTGALILQKGEIRVINQTTCENLLPQQITPRMMCVGFLSGGVDSCGGDSGGPLSSVEADGRIFQAGVVSWGIGCAQRNSPGVYTRLPLFRDWIKENTGV | 19.3
MTSP-1 H40R/I41H/F97D/F99L/C122S/Q192G/D217K/K224A (enzyme) VVGGTDADEGEWPWQVSLHALGQGRHCGASLISPNWLVSAAHCYIDDRGFRYSDPTQWTAFLGLHDQSQRSAPGVQERRLKRIISHPFFNDDTLDYDIALLELEKPAEYSSMVRPISLPDASHVFPAGKAIWVTGWGHTQYGGTGALILQKGEIRVINQTTCENLLPQQITPRMMCVGFLSGGVDSCGGDSGGPLSSVEADGRIFQAGVVSWGKGCAQRNAPGVYTRLPLFRDWIKENTGV | 23.4
MTSP-1 H40R/I41H/F97D/C122S/Q175R/Q192G/D217I/K224Q (enzyme) VVGGTDADEGEWPWQVSLHALGQGRHCGASLISPNWLVSAAHCYIDDRGFRYSDPTQWTAFLGLHDQSQRSAPGVQERRLKRIISHPFFNDDTFDYDIALLELEKPAEYSSMVRPISLPDASHVFPAGKAIWVTGWGHTQYGGTGALILQKGEIRVINQTTCENLLPQRITPRMMCVGFLSGGVDSCGGDSGGPLSSVEADGRIFQAGVVSWGIGCAQRNQPGVYTRLPLFRDWIKENTGV | 93.1
MTSP-1 H40P/I41R/F99L/C122S/G151K/Q192G (enzyme) VVGGTDADEGEWPWQVSLHALGQGPRCGASLISPNWLVSAAHCYIDDRGFRYSDPTQWTAFLGLHDQSQRSAPGVQERRLKRIISHPFFNDFTLDYDIALLELEKPAEYSSMVRPISLPDASHVFPAGKAIWVTGWGHTQYGGTKALILQKGEIRVINQTTCENLLPQQITPRMMCVGFLSGGVDSCGGDSGGPLSSVEADGRIFQAGVVSWGDGCAQRNKPGVYTRLPLFRDWIKENTGV | 96.1
MTSP-1 H40R/I41H/F97D/F99L/C122S/Q175R/Q192G/D217E/K224R (enzyme) VVGGTDADEGEWPWQVSLHALGQGRHCGASLISPNWLVSAAHCYIDDRGFRYSDPTQWTAFLGLHDQSQRSAPGVQERRLKRIISHPFFNDDTLDYDIALLELEKPAEYSSMVRPISLPDASHVFPAGKAIWVTGWGHTQYGGTGALILQKGEIRVINQTTCENLLPQRITPRMMCVGFLSGGVDSCGGDSGGPLSSVEADGRIFQAGVVSWGEGCAQRNRPGVYTRLPLFRDWIKENTGV | 31.2
MTSP-1 H40P/I41R/F99L/C122S/Q192G (enzyme) VVGGTDADEGEWPWQVSLHALGQGPRCGASLISPNWLVSAAHCYIDDRGFRYSDPTQWTAFLGLHDQSQRSAPGVQERRLKRIISHPFFNDFTLDYDIALLELEKPAEYSSMVRPISLPDASHVFPAGKAIWVTGWGHTQYGGTGALILQKGEIRVINQTTCENLLPQQITPRMMCVGFLSGGVDSCGGDSGGPLSSVEADGRIFQAGVVSWGDGCAQRNKPGVYTRLPLFRDWIKENTGV | 62.4
MTSP-1 H40R/I41H/F99L/C122S/G151E/Q192G (enzyme) VVGGTDADEGEWPWQVSLHALGQGRHCGASLISPNWLVSAAHCYIDDRGFRYSDPTQWTAFLGLHDQSQRSAPGVQERRLKRIISHPFFNDFTLDYDIALLELEKPAEYSSMVRPISLPDASHVFPAGKAIWVTGWGHTQYGGTEALILQKGEIRVINQTTCENLLPQQITPRMMCVGFLSGGVDSCGGDSGGPLSSVEADGRIFQAGVVSWGDGCAQRNKPGVYTRLPLFRDWIKENTGV | 829
MTSP-1 H40P/I41R/F99L/C122S/G151E/Q192G (enzyme) VVGGTDADEGEWPWQVSLHALGQGPRCGASLISPNWLVSAAHCYIDDRGFRYSDPTQWTAFLGLHDQSQRSAPGVQERRLKRIISHPFFNDFTLDYDIALLELEKPAEYSSMVRPISLPDASHVFPAGKAIWVTGWGHTQYGGTEALILQKGEIRVINQTTCENLLPQQITPRMMCVGFLSGGVDSCGGDSGGPLSSVEADGRIFQAGVVSWGDGCAQRNKPGVYTRLPLFRDWIKENTGV | 153
MTSP-1 I41R/ins97aE/F97T/T98G/F99L/C122S/G151D/Q175L/Q192E (enzyme) VVGGTDADEGEWPWQVSLHALGQGHRCGASLISPNWLVSAAHCYIDDRGFRYSDPTQWTAFLGLHDQSQRSAPGVQERRLKRIISHPFFNDTEGLDYDIALLELEKPAEYSSMVRPISLPDASHVFPAGKAIWVTGWGHTQYGGTDALILQKGEIRVINQTTCENLLPQLITPRMMCVGFLSGGVDSCEGDSGGPLSSVEADGRIFQAGVVSWGDGCAQRNKPGVYTRLPLFRDWIKENTGV | 163
MTSP-1 H40P/I41R/ins97aE/F97T/T98G/F99L/C122S/Q175L/Q192E (enzyme) VVGGTDADEGEWPWQVSLHALGQGPRCGASLISPNWLVSAAHCYIDDRGFRYSDPTQWTAFLGLHDQSQRSAPGVQERRLKRIISHPFFNDTEGLDYDIALLELEKPAEYSSMVRPISLPDASHVFPAGKAIWVTGWGHTQYGGTGALILQKGEIRVINQTTCENLLPQLITPRMMCVGFLSGGVDSCEGDSGGPLSSVEADGRIFQAGVVSWGDGCAQRNKPGVYTRLPLFRDWIKENTGV | 442
MTSP-1 I41R/F97T/ins97aE/T98G/F99L/C122S/G151E/Q175T/Q192E (enzyme) VVGGTDADEGEWPWQVSLHALGQGHRCGASLISPNWLVSAAHCYIDDRGFRYSDPTQWTAFLGLHDQSQRSAPGVQERRLKRIISHPFFNDTEGLDYDIALLELEKPAEYSSMVRPISLPDASHVFPAGKAIWVTGWGHTQYGGTEALILQKGEIRVINQTTCENLLPQTITPRMMCVGFLSGGVDSCEGDSGGPLSSVEADGRIFQAGVVSWGDGCAQRNKPGVYTRLPLFRDWIKENTGV | 363
MTSP-1 I41R/F97T/ins97aE/T98G/F99L/C122S/G151N/Q175S/Q192E (enzyme) VVGGTDADEGEWPWQVSLHALGQGHRCGASLISPNWLVSAAHCYIDDRGFRYSDPTQWTAFLGLHDQSQRSAPGVQERRLKRIISHPFFNDTEGLDYDIALLELEKPAEYSSMVRPISLPDASHVFPAGKAIWVTGWGHTQYGGTNALILQKGEIRVINQTTCENLLPQSITPRMMCVGFLSGGVDSCEGDSGGPLSSVEADGRIFQAGVVSWGDGCAQRNKPGVYTRLPLFRDWIKENTGV | 267
MTSP-1 H40P/I41R/ins97aE/F97T/T98G/F99L/C122S/G151D/Q175L/Q192E (enzyme) VVGGTDADEGEWPWQVSLHALGQGPRCGASLISPNWLVSAAHCYIDDRGFRYSDPTQWTAFLGLHDQSQRSAPGVQERRLKRIISHPFFNDTEGLDYDIALLELEKPAEYSSMVRPISLPDASHVFPAGKAIWVTGWGHTQYGGTDALILQKGEIRVINQTTCENLLPQLITPRMMCVGFLSGGVDSCEGDSGGPLSSVEADGRIFQAGVVSWGDGCAQRNKPGVYTRLPLFRDWIKENTGV | 212

Further lines, results first:

EC50 of hC3 cleavage [nM] | Binder
743 | MTSP-1 I41R/ins97aE/F97T/T98G/F99L/C122S/G151D/Q175T/Q192E (enzyme) VVGGTDADEGEWPWQVSLHALGQGHRCGASLISPNWLVSAAHCYIDDRGFRYSDPTQWTAFLGLHDQSQRSAPGVQERRLKRIISHPFFNDTEGLDYDIALLELEKPAEYSSMVRPISLPDASHVFPAGKAIWVTGWGHTQYGGTDALILQKGEIRVINQTTCENLLPQTITPRMMCVGFLSGGVDSCEGDSGGPLSSVEADGRIFQAGVVSWGDGCAQRNKPGVYTRLPLFRDWIKENTGV
1410 | MTSP-1 I41R/ins97aE/F97T/T98G/F99L/C122S/G151N/Q175T/Q192E (enzyme) VVGGTDADEGEWPWQVSLHALGQGHRCGASLISPNWLVSAAHCYIDDRGFRYSDPTQWTAFLGLHDQSQRSAPGVQERRLKRIISHPFFNDTEGLDYDIALLELEKPAEYSSMVRPISLPDASHVFPAGKAIWVTGWGHTQYGGTNALILQKGEIRVINQTTCENLLPQTITPRMMCVGFLSGGVDSCEGDSGGPLSSVEADGRIFQAGVVSWGDGCAQRNKPGVYTRLPLFRDWIKENTGV
1770 | MTSP-1 I41R/ins97aE/F97T/T98G/F99L/C122S/G151E/Q175T/Q192D (enzyme) VVGGTDADEGEWPWQVSLHALGQGHRCGASLISPNWLVSAAHCYIDDRGFRYSDPTQWTAFLGLHDQSQRSAPGVQERRLKRIISHPFFNDTEGLDYDIALLELEKPAEYSSMVRPISLPDASHVFPAGKAIWVTGWGHTQYGGTEALILQKGEIRVINQTTCENLLPQTITPRMMCVGFLSGGVDSCDGDSGGPLSSVEADGRIFQAGVVSWGDGCAQRNKPGVYTRLPLFRDWIKENTGV
622 | MTSP-1 I41R/ins97aE/F97T/T98G/F99L/C122S/G151N/Q175L/Q192D (enzyme) VVGGTDADEGEWPWQVSLHALGQGHRCGASLISPNWLVSAAHCYIDDRGFRYSDPTQWTAFLGLHDQSQRSAPGVQERRLKRIISHPFFNDTEGLDYDIALLELEKPAEYSSMVRPISLPDASHVFPAGKAIWVTGWGHTQYGGTNALILQKGEIRVINQTTCENLLPQLITPRMMCVGFLSGGVDSCDGDSGGPLSSVEADGRIFQAGVVSWGDGCAQRNKPGVYTRLPLFRDWIKENTGV
9990 | MTSP-1 I41R/ins97aE/F97T/T98G/F99L/C122S/G151N/Q175T/Q192D (enzyme) VVGGTDADEGEWPWQVSLHALGQGHRCGASLISPNWLVSAAHCYIDDRGFRYSDPTQWTAFLGLHDQSQRSAPGVQERRLKRIISHPFFNDTEGLDYDIALLELEKPAEYSSMVRPISLPDASHVFPAGKAIWVTGWGHTQYGGTNALILQKGEIRVINQTTCENLLPQTITPRMMCVGFLSGGVDSCDGDSGGPLSSVEADGRIFQAGVVSWGDGCAQRNKPGVYTRLPLFRDWIKENTGV
523 | MTSP-1 I41R/ins97aE/F97T/T98G/F99L/C122S/Q175L/Q192E (enzyme) VVGGTDADEGEWPWQVSLHALGQGHRCGASLISPNWLVSAAHCYIDDRGFRYSDPTQWTAFLGLHDQSQRSAPGVQERRLKRIISHPFFNDTEGLDYDIALLELEKPAEYSSMVRPISLPDASHVFPAGKAIWVTGWGHTQYGGTGALILQKGEIRVINQTTCENLLPQLITPRMMCVGFLSGGVDSCEGDSGGPLSSVEADGRIFQAGVVSWGDGCAQRNKPGVYTRLPLFRDWIKENTGV
1620 | MTSP-1 I41R/ins97aE/F97T/T98G/F99L/C122S/G151D/Q175T/Q192D (enzyme) VVGGTDADEGEWPWQVSLHALGQGHRCGASLISPNWLVSAAHCYIDDRGFRYSDPTQWTAFLGLHDQSQRSAPGVQERRLKRIISHPFFNDTEGLDYDIALLELEKPAEYSSMVRPISLPDASHVFPAGKAIWVTGWGHTQYGGTDALILQKGEIRVINQTTCENLLPQTITPRMMCVGFLSGGVDSCDGDSGGPLSSVEADGRIFQAGVVSWGDGCAQRNKPGVYTRLPLFRDWIKENTGV
311 | MTSP-1 I41R/ins97aE/F97T/T98G/F99L/C122S/G151N/Q175L/Q192E (enzyme) VVGGTDADEGEWPWQVSLHALGQGHRCGASLISPNWLVSAAHCYIDDRGFRYSDPTQWTAFLGLHDQSQRSAPGVQERRLKRIISHPFFNDTEGLDYDIALLELEKPAEYSSMVRPISLPDASHVFPAGKAIWVTGWGHTQYGGTNALILQKGEIRVINQTTCENLLPQLITPRMMCVGFLSGGVDSCEGDSGGPLSSVEADGRIFQAGVVSWGDGCAQRNKPGVYTRLPLFRDWIKENTGV
